Source: PMC4575208, “Characterization of Flavin-Containing Opine Dehydrogenase from Bacteria” (PLoS ONE, 2015)

T1: PpOdhB (beta-subunit of PpOpnDH, PpOdhABC) (Pseudomonas putida, UniProt Q88EK5+Q88EK6)
T1 construct: gene ooxB; N-terminal (His)6-tagged PpOdhB in the PpOdhABC complex (α4β4γ4); with PpOdhA (PP_4456) and PpOdhC
T1 sequence (Q88EK5 1-375): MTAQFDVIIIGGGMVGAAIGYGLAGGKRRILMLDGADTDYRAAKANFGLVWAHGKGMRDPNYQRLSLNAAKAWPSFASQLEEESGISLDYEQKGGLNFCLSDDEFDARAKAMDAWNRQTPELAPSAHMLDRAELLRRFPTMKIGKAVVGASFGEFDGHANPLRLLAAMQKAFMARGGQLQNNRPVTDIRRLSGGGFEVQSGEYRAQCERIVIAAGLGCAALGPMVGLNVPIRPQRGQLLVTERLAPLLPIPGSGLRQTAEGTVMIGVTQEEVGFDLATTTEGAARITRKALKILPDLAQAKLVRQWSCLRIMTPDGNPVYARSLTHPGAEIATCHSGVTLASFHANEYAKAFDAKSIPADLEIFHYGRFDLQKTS
T1 sequence (Q88EK6 2-464): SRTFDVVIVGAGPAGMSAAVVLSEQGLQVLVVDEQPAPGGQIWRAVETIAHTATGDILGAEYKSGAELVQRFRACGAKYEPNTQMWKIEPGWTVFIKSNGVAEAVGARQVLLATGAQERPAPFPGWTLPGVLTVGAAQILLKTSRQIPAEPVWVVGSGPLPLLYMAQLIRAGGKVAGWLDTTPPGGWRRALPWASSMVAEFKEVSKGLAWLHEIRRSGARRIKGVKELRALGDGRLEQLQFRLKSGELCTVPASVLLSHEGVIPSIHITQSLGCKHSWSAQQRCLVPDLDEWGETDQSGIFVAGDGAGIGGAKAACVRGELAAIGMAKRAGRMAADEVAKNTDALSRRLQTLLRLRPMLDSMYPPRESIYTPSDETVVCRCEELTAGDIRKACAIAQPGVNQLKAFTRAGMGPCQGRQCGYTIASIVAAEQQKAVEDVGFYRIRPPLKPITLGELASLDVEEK

T2: (His)6-tagged PpOdhB, β-subunit of opine dehydrogenase from Pseudomonas putida KT2440 (Pseudomonas putida KT2440, UniProt Q88EK5 1-375)
T2 construct: PpOdhB, product of gene PP_4457 of Pseudomonas putida KT2440; first gene of the operon PpOdhB-C-A; band of 42 kDa; Carries FAD; also called PP_4457; source: P. putida KT2442-oxyR1 harboring pUCP/PpOdhABC, co-expressed from the PpOdhB-C-A operon, purified (Ni-NTA); not shown: His6, N-terminal, kept
T2 sequence (looked up): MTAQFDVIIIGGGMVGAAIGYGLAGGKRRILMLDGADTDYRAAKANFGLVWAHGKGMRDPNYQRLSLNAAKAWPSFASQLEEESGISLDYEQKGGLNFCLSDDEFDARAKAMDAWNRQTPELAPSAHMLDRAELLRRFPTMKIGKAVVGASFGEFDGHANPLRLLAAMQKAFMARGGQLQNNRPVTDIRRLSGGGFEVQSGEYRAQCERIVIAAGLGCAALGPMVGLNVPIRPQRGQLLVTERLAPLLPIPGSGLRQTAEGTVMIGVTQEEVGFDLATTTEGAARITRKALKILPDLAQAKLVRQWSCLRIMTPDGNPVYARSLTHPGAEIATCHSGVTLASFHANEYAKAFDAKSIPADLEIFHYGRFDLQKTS


What was measured:
[1] = target: (His)6-tagged PpOdhB, β-subunit of opine dehydrogenase from Pseudomonas putida KT2440 (Pseudomonas putida KT2440) (UniProt Q88EK5); assay: pull-down; PpOdhB-C-A operon with N-terminal (His)6-tag on OdhB expressed in P. putida cells; Ni-NTA chromatography in buffer with Tween-20, 300 mM NaCl, pH 8.0; bands on SDS-PAGE identified by N-terminal sequencing; molar ratio by image scanning of SDS-PAGE peak areas (ImageJ)
[2] = target: T1, PpOdhB (beta-subunit of PpOpnDH, PpOdhABC); assay: inhibition of nopaline ([…]) dehydrogenase activity of the purified enzyme; type: biochemical
purified protein [3] = substrate: N=C(N)NCCC[C@H](N[C@H](CCC(=O)O)C(=O)O)C(=O)O; assay: purified protein; details: FAD, FMN, [2Fe-2S] the β- and α-subunit were both necessary for substrate binding
purified protein [4] = substrate: C[C@@H](N[C@@H](CCCNC(=N)N)C(=O)O)C(=O)O; assay: purified protein; details: FAD, FMN
[5] = target: T2, (His)6-tagged PpOdhB, β-subunit of …; assay: pull-down; PpOdhB-C-A operon with N-terminal (His)6-tag on OdhB expressed in P. putida cells; Ni-NTA chromatography in buffer with Tween-20, 300 mM NaCl, pH 8.0; bands on SDS-PAGE identified by N-terminal sequencing; molar ratio by image scanning of SDS-PAGE peak areas (ImageJ); details: partners not purified

Row | Molecule | Km (purified protein [4]) [mM] | kcat (purified protein [4]) [s⁻¹] | kcat/Km (purified protein [4]) [M⁻¹ s⁻¹] | further results
1 | PpOdhC, γ-subunit of opine dehydrogenase from Pseudomonas putida KT2440 (enzyme) |  |  |  | stoichiometry N [1]: 1
2 | O=C(O)CCC(=O)C(=O)O [α-ketoglutarate] |  |  |  | IC50 [2]: 589 µM
3 | PpOdhB (beta-subunit of PpOpnDH, PpOdhABC) (Pseudomonas putida KT2440) (protein) chain 1: MTAQFDVIIIGGGMVGAAIGYGLAGGKRRILMLDGADTDYRAAKANFGLVWAHGKGMRDPNYQRLSLNAAKAWPSFASQLEEESGISLDYEQKGGLNFCLSDDEFDARAKAMDAWNRQTPELAPSAHMLDRAELLRRFPTMKIGKAVVGASFGEFDGHANPLRLLAAMQKAFMARGGQLQNNRPVTDIRRLSGGGFEVQSGEYRAQCERIVIAAGLGCAALGPMVGLNVPIRPQRGQLLVTERLAPLLPIPGSGLRQTAEGTVMIGVTQEEVGFDLATTTEGAARITRKALKILPDLAQAKLVRQWSCLRIMTPDGNPVYARSLTHPGAEIATCHSGVTLASFHANEYAKAFDAKSIPADLEIFHYGRFDLQKTS chain 2: SRTFDVVIVGAGPAGMSAAVVLSEQGLQVLVVDEQPAPGGQIWRAVETIAHTATGDILGAEYKSGAELVQRFRACGAKYEPNTQMWKIEPGWTVFIKSNGVAEAVGARQVLLATGAQERPAPFPGWTLPGVLTVGAAQILLKTSRQIPAEPVWVVGSGPLPLLYMAQLIRAGGKVAGWLDTTPPGGWRRALPWASSMVAEFKEVSKGLAWLHEIRRSGARRIKGVKELRALGDGRLEQLQFRLKSGELCTVPASVLLSHEGVIPSIHITQSLGCKHSWSAQQRCLVPDLDEWGETDQSGIFVAGDGAGIGGAKAACVRGELAAIGMAKRAGRMAADEVAKNTDALSRRLQTLLRLRPMLDSMYPPRESIYTPSDETVVCRCEELTAGDIRKACAIAQPGVNQLKAFTRAGMGPCQGRQCGYTIASIVAAEQQKAVEDVGFYRIRPPLKPITLGELASLDVEEK |  |  |  | Km (purified protein [3]): 0.476 mM; kcat (purified protein [3]): 315 s⁻¹; kcat/Km (purified protein [3]): 663000 M⁻¹ s⁻¹
4 | BjOdhB2 (beta-subunit of BjOpnDH2, BjOdhAB2C) (Bradyrhizobium diazoefficiens USDA 110) (protein) chain 1: MTGNVDAIVIGGGIHGCSTTLHLCLAGLKPVLIEKDYAGRHASGVNAGGVRQLARHVPEIPLSIRSMGIWERITDLLDDDCSFESHGQVLVAENEDELAVCRARVAELNALGFTHEELIDATELRRLVPAVAETCPGGVVSRRDGAANPAQTTTAFRRKAEQLGATVREGVAASNIRYSDGLWYVDVGSDTYAAPVLVNAAGAWAGKIAAALGEPVPVETVAPMLMITSRVPHFIDPVVILRGRKLSFKQFSNGTVLIGGGHLATPYQDRNETVLDWKSLAISARTVFELFPVMRSATIVRAWAGIEAKMKDDIPVFGPSSRHKGLYHQFGFSLHGFQLGPGAGAVMAELIVNGGTQTRIGDLGIDRFHPSTL chain 2: MTVAPKREDYDVVVIGAGPAGLAAAATSAEAGLSTLLLDENIGPGGQVFRAISSTPVTDRNQLGADYWVGADLVQSLRASNAEVIQRAMVWSLDRNLDIAVSVGGASAFVKAKRVILATGALERPFPIPGWTLPGVMTAGAAQTMLKSSALVPDGRTVIAGQGPLLWLLAAQILRLGGRIDRILDTTERGNYFAALPHAFAFLTSPYFAKGLSMMREVKAKVQVVTGVTELTASGDGQLANVSYVAGGKRETLPVDLLLLHQGVVPNVNLAMAAGVEHRWDELQLCWSPVLDANGSSSVAGIAIAGDGAGIGGANAAVVRGRIAARAAVEALAPAAAAKLASMATLRADLAKAERGRAFLDTLFRPAPQFRIPSGDTIVCRCEEVTAKDVLDSVAIGATGPNQLKAYRRTGMGPCQGRLCGLTVTELMAQARGKSPQEIGYYRLRAPVKPITLAELAAVPKTEDDVKAVVRG | 19.5 | 72.8 | 3730 | 
5 | BjOdhB1 (beta-subunit of BjOpnDH1, BjOdhAB1C) (Bradyrhizobium diazoefficiens USDA 110) (protein) chain 1: MSGEYDVAVVGGGLLGSAIAWGLGRLGKKVAVLDEGDITKRASRANFALVWVQSKGLGMPAYTVWTVQASQAWGRLAFELKQQTGLDVSLQQNGGFHLTLGEDEFGQRTELVKRMHNQVGAADYKMEMLPASEVKKALPLIGPEVSGGSYCPLDGHVNSLRTFRAFHTGFMAFGIDYLPERPVSAISKSGGEFRLTTPKGELRAAKVVLAAGNANQTLAPMVGLHAPMGPTRGQIVVTERTMPFLPHPLTTIRQTDEGTVMIGDSKEDELDDRTLKHSISAVMTDRAQRMFPHLSRLNVIRSWAGIRVMPQDGFPIYDQSETHPGAFVACCHSGVTLASNHAFEIARMVAQGALEPELVGAFSASRFGGAGAANNSGY chain 2: MTVAPKREDYDVVVIGAGPAGLAAAATSAEAGLSTLLLDENIGPGGQVFRAISSTPVTDRNQLGADYWVGADLVQSLRASNAEVIQRAMVWSLDRNLDIAVSVGGASAFVKAKRVILATGALERPFPIPGWTLPGVMTAGAAQTMLKSSALVPDGRTVIAGQGPLLWLLAAQILRLGGRIDRILDTTERGNYFAALPHAFAFLTSPYFAKGLSMMREVKAKVQVVTGVTELTASGDGQLANVSYVAGGKRETLPVDLLLLHQGVVPNVNLAMAAGVEHRWDELQLCWSPVLDANGSSSVAGIAIAGDGAGIGGANAAVVRGRIAARAAVEALAPAAAAKLASMATLRADLAKAERGRAFLDTLFRPAPQFRIPSGDTIVCRCEEVTAKDVLDSVAIGATGPNQLKAYRRTGMGPCQGRLCGLTVTELMAQARGKSPQEIGYYRLRAPVKPITLAELAAVPKTEDDVKAVVRG | 4.81 | 0.0982 | 20.3 | 
6 | PpOdhA, α-subunit of opine dehydrogenase from Pseudomonas putida KT2440 (enzyme, UniProt Q88EK6 1-464, looked up, PpOdhA, product of gene PP_4456 of Pseudomonas putida KT2440; GTG used as start codon; band of 46 kDa (45 kDa in the methods); The start (GTG codon) may differ from the annotated entry; also called PP_4456) MSRTFDVVIVGAGPAGMSAAVVLSEQGLQVLVVDEQPAPGGQIWRAVETIAHTATGDILGAEYKSGAELVQRFRACGAKYEPNTQMWKIEPGWTVFIKSNGVAEAVGARQVLLATGAQERPAPFPGWTLPGVLTVGAAQILLKTSRQIPAEPVWVVGSGPLPLLYMAQLIRAGGKVAGWLDTTPPGGWRRALPWASSMVAEFKEVSKGLAWLHEIRRSGARRIKGVKELRALGDGRLEQLQFRLKSGELCTVPASVLLSHEGVIPSIHITQSLGCKHSWSAQQRCLVPDLDEWGETDQSGIFVAGDGAGIGGAKAACVRGELAAIGMAKRAGRMAADEVAKNTDALSRRLQTLLRLRPMLDSMYPPRESIYTPSDETVVCRCEELTAGDIRKACAIAQPGVNQLKAFTRAGMGPCQGRQCGYTIASIVAAEQQKAVEDVGFYRIRPPLKPITLGELASLDVEEK |  |  |  | stoichiometry N [5]: ~1
